Experimental findings from US20130131322A1 are described below.

The test addresses EGFR on A431 cells (human) (UniProt P00533). In words: cell-based or functional assay.

“anti-EGFR antibody (clone 225: the original antibody of cetuximab, Calbiochem)” displayed an inhibition of EGFR phosphorylation in A431 cells of 40%.
